According to article PMC7497807:

What was measured:
Test in all cases: fluorescence polarisation
[1] = target: BCOR (aa 1176–1225)-FITC (UniProt Q6W2J9)
[2] = target: FITC-CBX8 A335V peptide
[3] = target: MBP-AF9

BCOR (aa 1176–1225)-FITC, sequence (Q6W2J9 1176-1225): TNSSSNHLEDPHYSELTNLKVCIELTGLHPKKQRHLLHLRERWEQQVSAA

Kd [1] [µM]	Kd [2] [µM]	IC50 [3] [µM]	Substance
0.018	0.012	–	MBP-AF9 (domain or fragment)
–	–	0.096	unlabeled CBX8 A335V peptide
